Measurements published in patent US20020192780.

How the values were obtained:
[1] = target: PLA2 (Bovine pancreas, EC 3.1.1.4, Sigma), P00593
[2] = target: T1, SEQ ID NO:1 (KVLDPVKG)
T1 chain: KVLDPVKG

[3] = target: T2, SEQ ID NO:2 (KVLDGQDP)
T2 chain: KVLDGQDP

Chain of PLA2 (Bovine pancreas, EC 3.1.1.4, Sigma), P00593 (P00593 23-145): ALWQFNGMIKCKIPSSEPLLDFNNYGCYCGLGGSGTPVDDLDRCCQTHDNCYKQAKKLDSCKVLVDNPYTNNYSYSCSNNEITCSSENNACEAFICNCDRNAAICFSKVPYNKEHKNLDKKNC

B1: TGase (Guinea pig liver, EC 2.3.2.13, Sigma) (protein)
chain: AEDLILERCDLQLEVNGRDHRTADLCRERLVLRRGQPFWLTLHFEGRGYEAGVDTLTFNAVTGPDPSEEAGTMARFSLSSAVEGGTWSASAVDQQDSTVSLLLSTPADAPIGLYRLSLEASTGYQGSSFVLGHFILLYNPRCPADAVYMDSDQERQEYVLTQQGFIYQGSAKFINGIPWNFGQFEDGILDICLMLLDTNPKFLKNAGQDCSRRSRPVYVGRVVSAMVNCNDDQGVLQGRWDNNYSDGVSPMSWIGSVDILRRWKDYGCQRVKYGQCWVFAAVACTVLRCLGIPTRVVTNFNSAHDQNSNLLIEYFRNESGEIEGNKSEMIWNFHCWVESWMTRPDLEPGYEGWQALDPTPQEKSEGTYCCGPVPVRAIKEGHLNVKYDAPFVFAEVNADVVNWIRQKDGSLRKSINHLVVGLKISTKSVGRDEREDITHTYKYPEGSEEEREAFVRANHLNKLATKEEAQEETGVAMRIRVGQNMTMGSDFDIFAYITNGTAESHECQLLLCARIVSYNGVLGPVCSTNDLLNLTLDPFSENSIPLHILYEKYGDYLTESNLIKVRGLLIEPAANSYVLAERDIYLENPEIKIRVLGEPKQNRKLIAEVSLKNPLPVPLLGCIFTVEGAGLTKDQKSVEVPDPVEAGEQAKVRVDLLPTEVGLHKLVVNFECDKLKAVKGYRNVIIGPA
For B1, which PLA2 activity [1] is on record?
The PLA2 activity was “PLA2 activity was increased about 2-fold after TGase 2 treatment”.

And the “TGase activity (incorporation of 14C-putrescine into succinylated casein), peptide 1x10^-8 M preincubated with the enzyme” value [2]?
Its value is “significantly reduced the PLA2 and TGase activities”.

What about the “TGase activity (incorporation of 14C-putrescine into succinylated casein), peptide 1x10^-8 M preincubated with the enzyme” value [3] of the same protein?
Its value is “significantly reduced the PLA2 and TGase activities”.
